The chains are these.
T1: A*01/LTD peptide on A*01/LTD (human)
T1 peptide: LTDEMIAQY

T2: A*02/YLQ peptide on A*02/YLQ (human)
T2 peptide: YLQPRTFLL

T3: A*24/QYI peptide on A*24/QYI (human)
T3 peptide: QYIKWPWYI

B1: 99 (TCR)
alpha TRAV5 TRAJ24 CDR3: CAERRGKLQF
beta TRBV15 TRBJ2-5 CDR3: CATSRGPGGSKAGETQYF
B2: 41 (TCR)
alpha TRAV12-2 TRAJ53 CDR3: CAVGRGGGSNYKLTF
beta TRBV29-1 TRBJ2-7 CDR3: CSAHGGWPYEQYF
B3: 1690 (TCR)
alpha TRAV8-4 TRAJ10 CDR3: CAVSDLRVLTGGGNKLTF
beta TRBV7-9 TRBJ2-1 CDR3: CASSLALAGRNYNEQFF
B4: 1361 (TCR)
alpha TRAV12-1 TRAJ4 CDR3: CVVTGFSGGYNKLIF
beta TRBV14 TRBJ1-4 CDR3: CASSLVRGGFEKLFF
B5: 475 (TCR)
alpha TRAV3 TRAJ40 CDR3: CAVSGPTSGTYKYIF
beta TRBV5-5 TRBJ1-5 CDR3: CASSLWDGGNQPQHF
B6: 1650 (TCR)
alpha TRAV13-1 TRAJ9 CDR3: CAAPPGGFKTIF
beta TRBV28 TRBJ2-1 CDR3: CASTTSTGAYNEQFF
B7: 2997 (TCR)
alpha TRAV9-2 TRAJ9 CDR3: CALSALNTGGFKTIF
beta TRBV20-1 TRBJ1-1 CDR3: CSASGLTRDSPLNTEAFF
B8: 9973 (TCR)
alpha TRAV39 TRAJ54 CDR3: CAVDSSFQGAQKLVF
beta TRBV6-2 TRBJ2-7 CDR3: CASSLPDSYEQYF
B9: 5766 (TCR)
alpha TRAV12-1 TRAJ43 CDR3: CVVNMYDDMRF
beta TRBV5-1 TRBJ2-2 CDR3: CASIDSNTGELFF
B10: 3695 (TCR)
alpha TRAV12-1 TRAJ20 CDR3: CVVNWYDYKLSF
beta TRBV30 TRBJ2-2 CDR3: CAWINDQNTGELFF
B11: 10749 (TCR)
alpha TRAV12-1 TRAJ20 CDR3: CVVNKEDKLSF
beta TRBV20-1 TRBJ2-2 CDR3: CSARDLLAANTGELFF
B12: 6579 (TCR)
alpha TRAV12-1 TRAJ10 CDR3: CVVNSPEGGGNKLTF
beta TRBV7-2 TRBJ1-1 CDR3: CASSSLNSLEAFF
B13: 6688 (TCR)
alpha TRAV12-1 TRAJ36 CDR3: CVVNKEDNLFF
beta TRBV9 TRBJ2-2 CDR3: CASSGGIETSGNTGELFF
B14: 7411 (TCR)
alpha TRAV12-1 TRAJ45 CDR3: CVVNRADGLTF
beta TRBV12-3 TRBJ2-2 CDR3: CASTDGNTGELFF
B15: 9825 (TCR)
alpha TRAV12-1 TRAJ43 CDR3: CVVNELDDMRF
beta TRBV5-1 TRBJ2-2 CDR3: CASAGPNTGELFF
B16: 84 (TCR)
alpha TRAV8-3 TRAJ24 CDR3: CAVGLTDSWGKLQF
beta TRBV5-8 TRBJ2-1 CDR3: CASSLAIRGIIDNEQFF
B17: 96 (TCR)
alpha TRAV38-1 TRAJ57 CDR3: CAFSPGGSEKLVF
beta TRBV5-1 TRBJ2-7 CDR3: CASSLGRFLRGDWDYEQYF

One test deals with T1, A*01/LTD peptide on A*01/LTD. The test can be described thus: activation reporter or marker.
As for B1, the binding result is on record as “recognises”. Still for that read-out and setting: then B2, with “recognises”; and B3, with “no recognition”. On the same count and under the same terms, then B4, with “recognises”. Turning to B5, the binding result is “recognises”. Consider B6, for which the binding result is on record as “recognises”. The same measure, in the same setting: the value for B7 was “recognises”.

The next test deals with T2, A*02/YLQ peptide on A*02/YLQ. The test is described as follows: activation reporter or marker.
With B8, the binding result is listed as “no recognition”.

On to B9, for which the binding result is listed as “recognises”. Take B10: the binding result is given as “recognises”. The same measure, in the same setting: the value for B11 was “recognises”; that for B12 was “recognises”; that for B13 was “recognises”.

B14: the binding result is reported as “recognises”.

Turning to B15, the binding result is on record as “recognises”.

The target in a further test is T3, A*24/QYI peptide on A*24/QYI. The test can be described thus: activation reporter or marker.
Take B16: the binding result was “no recognition”. Same read-out and setting: the value for B17 was “no recognition”.
